Measurements from patent US20100243450.

Biological target: Mef2c (UniProt Q06413)
Conditions: NECEEM; 25 mM tetraborate pH 9.4, room temperature; koff 0.022 s-1, kon 45 M-1 s-1

Mef2c, sequence (Q06413 whole entry): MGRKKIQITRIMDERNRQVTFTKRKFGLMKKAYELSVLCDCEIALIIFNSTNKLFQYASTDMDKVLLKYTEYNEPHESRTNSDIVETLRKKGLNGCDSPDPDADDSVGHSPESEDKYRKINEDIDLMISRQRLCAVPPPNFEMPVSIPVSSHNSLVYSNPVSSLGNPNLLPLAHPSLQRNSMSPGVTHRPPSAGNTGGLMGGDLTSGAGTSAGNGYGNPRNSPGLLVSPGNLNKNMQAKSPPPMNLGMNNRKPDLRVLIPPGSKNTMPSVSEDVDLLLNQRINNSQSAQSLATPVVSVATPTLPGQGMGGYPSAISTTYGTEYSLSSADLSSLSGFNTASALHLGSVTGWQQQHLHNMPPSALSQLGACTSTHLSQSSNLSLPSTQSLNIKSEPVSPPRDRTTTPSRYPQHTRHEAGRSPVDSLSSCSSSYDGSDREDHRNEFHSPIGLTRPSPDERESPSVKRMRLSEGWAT

## CCTGCCACGCTCCGCTCTAAAAATAA (double strand) [Mef2c target dsDNA 26 bp]
  Kd: 480 µM
